Results taken from patent US20260070974A1 (NONA BIOSCIENCES SUZHOU, published 2026).
Several values for one entry are separate records, joined by “and”; a condition that tells them apart may be missing. Identical values can stand only once.

T1: human Siglec-15 ECD-his protein (Acrobiosystems, Cat #: SG5-H52H3) (human, UniProt Q6ZMC9 20-263)
T1 construct: Bought protein; only its extracellular domain stood in the assay; also called human Siglec-15 protein; recombinant human Siglec-15 protein; not shown: his tag
T1 sequence: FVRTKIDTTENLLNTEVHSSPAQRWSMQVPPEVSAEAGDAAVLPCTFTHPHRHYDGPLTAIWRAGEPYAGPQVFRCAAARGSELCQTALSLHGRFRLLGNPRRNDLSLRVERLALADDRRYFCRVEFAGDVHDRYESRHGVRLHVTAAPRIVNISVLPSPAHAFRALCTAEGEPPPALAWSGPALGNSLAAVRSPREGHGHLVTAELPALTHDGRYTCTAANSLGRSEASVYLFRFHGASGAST

T2: human Siglec-10-his protein (Acrobiosystems, Cat SIO-H52H9) (human, UniProt Q96LC7 17-546, limits assumed)
T2 construct: Bought protein; not shown: his tag
T2 sequence (looked up): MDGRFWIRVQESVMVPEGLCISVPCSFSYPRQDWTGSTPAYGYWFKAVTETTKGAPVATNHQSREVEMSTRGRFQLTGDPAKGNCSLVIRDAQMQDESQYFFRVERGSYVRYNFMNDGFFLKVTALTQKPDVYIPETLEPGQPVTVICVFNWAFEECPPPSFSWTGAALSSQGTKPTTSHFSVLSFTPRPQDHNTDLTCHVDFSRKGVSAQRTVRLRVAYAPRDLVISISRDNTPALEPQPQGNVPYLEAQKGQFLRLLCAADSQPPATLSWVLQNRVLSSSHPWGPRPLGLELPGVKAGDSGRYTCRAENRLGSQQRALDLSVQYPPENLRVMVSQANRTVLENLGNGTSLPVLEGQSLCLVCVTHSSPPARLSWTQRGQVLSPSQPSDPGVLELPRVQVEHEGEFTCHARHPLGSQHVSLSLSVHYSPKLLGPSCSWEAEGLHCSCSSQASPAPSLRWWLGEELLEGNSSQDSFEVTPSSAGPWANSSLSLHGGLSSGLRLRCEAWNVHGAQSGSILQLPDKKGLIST

B1: PR301285 (antibody, human IgG1, kappa, V domains shown)
VH: QVQLQESGPGLVKPSETLSLTCTVSGGSMISYYWSWLRQPPGKGLEWIGYIYYSGNTNYNPSLKSRITIAVDTSKNQFSLKLNSVTAADTAVYYCARERELHPYYFDYWGQGTLVTVSS
VL: DIQLTQSPSFLSASVGDRVTITCRASQGIDNYLAWYQQKPGKAPKVLIYAASTLQSGVPSRFSGSGSGTEFTLTISSLQPEDFATYYCQQLNSYPLTFGGGTKVEIKR
B2: PR301286 (antibody, human IgG1, kappa, V domains shown)
VH: QVQLVESGGGVVQPGKSLRLSCAASGFTFSSYGMHWVRQAPGKGLEWVAVIWIDGSNRYYAASVKGRFTISRDNSKNTLYLQMNSLRAEDTAVYYCTRGYGDYAYVMDVWGQGASVTVSS
VL: DIVMTQSPLSLPVTPGEPASISCRSSQSLLPGNGYNYLDWYLQKPGQSPQLLIYLGSNRASGVPDRFSGSGSGTDFTLKISRVEAEDVGIYYCMQALQSPLTFGGGTKVEIKR
notes: Parent of the PTM variants PR301286-1, -3, -5, -6, -7
B3: PR300066 (Tab) (antibody, human IgG1, kappa, V domains shown)
VH: QVQLQQPGAELVKPGASVKMSCKASGYTFTSYWITWVIQRPGQGLEWIGDIYCGSDTMHYNEKFKNKATLTVDTSSSTAYMQLSSLTSEDSAVYYCARWWDYGSSYDYFDYWGQGTTLTVSS
VL: DIKMTQSPSSMYASLGERVTITCKASQDINSYLSWFQQKPGKSPKTLIYRANRLVDGVPSRFSGSGSGQDYSLTISSLEYEDMGIYYCLQYDEFPYTFGGGTKLEIKR
notes: variable region from clone 5G12 of WO 2018/057735A1, on human IgG1/kappa constant regions; also called 5G12
B4: PR301289 (antibody, human IgG1, kappa, V domains shown)
VH: QVQLVQSGAEVKKPGASVKVSCRASGYTFTSYDINWVRQATGQGLEWMGWMNPHSGDTGYAQNFQGRVTMTWNTSISTAYMELSSLRSEDTAVYYCARRRVGVYYYGMDVWGQGTTVTVSS
VL: ENVLTQSPGTLSLSPGERATLSCRASQSVSSSYFGWYQQKPGQAPRLLIYGASSRATGIPDRFSGSGSGTDFTLTISRLEPEDFAVYYCQQYGSSPITFGQGTRLEIKR
notes: Parent of the PTM variants PR301289-1 and -2

How the values were obtained:
[1] = target: T1, human Siglec-15 ECD-his protein …; assay: BLI (Octet RED96), antibody on AHC sensor, Siglec-15 ECD-his as analyte
[2] = target: T2, human Siglec-10-his protein …; assay: ELISA on coated human Siglec-10-his, antibody at 100 nM and 10 nM, goat anti-human IgG-HRP, OD450
Experimental: Human Siglec-15 ECD-his protein (Acrobiosystems, Cat SG5-H52H3), human Siglec-2-his protein (Acrobiosystems, Cat CD2-H52H8), human Siglec-4a-his protein (Acrobiosystems, Cat MAG-H52H8), human Siglec-3-his protein (Acrobiosystems, Cat CD3-H5226), human Siglec-10-his protein (Acrobiosystems, Cat SIO-H52H9), and human PD-L1/B7-H1-his protein (Acrobiosystems, Cat PD1-H5229), each at 1 μg/mL and dissolved in PBS, were each added to an ELISA plate at 100 μL/well for coating and the plate was incubated overnight at 4° C. The ELISA plate was then blocked with PBST (PBS+0.05% Tween 20) containing 2% BSA at 200 μL/well and incubated at 37° C. for 1 h. The ELISA plate was washed 4 times with PBST. The anti-Siglec-15 antibody diluted in a gradient (concentrations: 100 nM and 10 nM) was added to the ELISA plate at 100 μL/well and the plate was incubated at 37° C. for 1 h. The ELISA plate was washed 4 times with PBST. The goat anti-human IgG (H+L)-HRP (1:5000, Jackson, Cat 109-035-088) was added at 100 μL/well and the plate was incubated at 37° C. for 1 h. The ELISA plate was washed 4 times with PBST. The TMB substrate (Biopanda, Cat TMB-S-003) was added at 100 μL/well, and the plate was incubated at room temperature for 5 min, and then the stop buffer (Solarbio, Cat #: C1058) was added at 100 μL/well to stop the reaction.

[3] = target: T3, mouse Siglec-15-his protein (Acrobiosystems, Cat #: SG5-M52H7) (mouse); assay: ELISA, coated mouse Siglec-15-his
T3 construct: Bought protein; also called mouse Siglec-15 protein
Experimental: […] mouse Siglec-15-his protein (Acrobiosystems, Cat #: SG5-M52H7) dissolved in PBS was added to an ELISA plate at 100 μL/well for coating and the plate was incubated overnight at 4° C. The ELISA plate was then blocked with PBST (PBS+0.05% Tween 20) containing 2% BSA at 200 μL/well and incubated at 37° C. for 1 h. The ELISA plate was washed 4 times with PBST. The anti-Siglec-15 antibody diluted in a gradient (5-fold dilution, starting concentration: 6.67 nM) was added to the ELISA plate at 100 μL/well and the plate was incubated at 37° C. for 1 h. The ELISA plate was washed 4 times with PBST. The goat anti-human IgG (H+L)-HRP (1:5000, Jackson, Cat: 109-035-088) was added at 100 μL/well and the plate was incubated at 37° C. for 1 h. The ELISA plate was washed 4 times with PBST. The TMB substrate (Biopanda, Cat: TMB-S-003) was added at 100 μL/well, and the plate was incubated at room temperature for 5 min, and then the stop buffer (Solarbio, Cat #: C1058) was added at 100 μL/well to stop the reaction.

| Binder | Kd [1] | koff [1] | kon [1] | binding result [2] | EC50 [3] |
| --- | --- | --- | --- | --- | --- |
| B1 | < 0.001 nM | < 1e-07 s⁻¹ | 529000 M⁻¹ s⁻¹ | no binding (tested: 100 nM) |  |
| B2 | < 0.001 nM | < 1e-07 s⁻¹ | 368000 M⁻¹ s⁻¹ and 292000 M⁻¹ s⁻¹ | no binding (tested: 100 nM) | 0.051 nM |
| B3 | 0.13 nM and 0.293 nM | 9.5e-05 s⁻¹ and 0.000182 s⁻¹ | 730000 M⁻¹ s⁻¹ and 621000 M⁻¹ s⁻¹ | no binding (tested: 100 nM) | 0.019 nM and 0.023 nM |
| B4 | 0.173 nM | 6.47e-05 s⁻¹ | 373000 M⁻¹ s⁻¹ | no binding (tested: 100 nM) | 0.036 nM |
